The results in this text go back to article doi:10.1101/255976.

In one data set the target is BRCA1 (human, UniProt P38398 1-1863). The data set is described as follows: EMSA. Background: In EMSA bound probe runs differently from free probe, usually more slowly.
The target in the next data set is BRCA1;BARD1 (human;human, UniProt P38398;Q99728 1-1863;1-777, |). In words: EMSA.

B1: 50 bp DNA:RNA hybrid X12-3 DNA/X12-4C RNA (DNA:RNA)
DNA: GACGTCATAGACGATTACATTGCTAGGACATGCTGTCTAGAGACTATCGC
RNA: GCGAUAGUCUCUAGACAGCAUGUCCUAGCAAUGUAAUCGUCUAUGACGUC
As to B1, the binding result in the data set with BRCA1 and with BRCA1;BARD1 was “binds” each time.
